{"source": "patent US20240287172A1", "about": "(SCIRHOM, published 2024)", "binders": {"B1": {"name": "antibody 16 (antibody, V domains shown)", "VH": "QVTLKESGPGILQPSQTLSLTCSFSGFSLSTFALGVGWIRQPSGRGLEWLAHIWWDDDKYYNPALKSRLTISKDTSKNHVFLKIANVDTADTATYYCARITTYYYGMDYWGQGTSVTVSS", "VL": "DIVLSQSPATLSVTPGDSVSLFCRASQSIGNHLHWYQQESHASPRLLIKYASQSISGIPSRFSGSGSGTDFTLSINSVETEDFGMYFCQQSYNWPLTFGAGTKLELK", "notes": "mouse IgG, kappa light chain; also called clone #16; purified antibody 16"}}, "molecular_target": "T1, dog iRhom2 full length wild type, T7-tagged (dog, UniProt Q00M95 1-827)", "T1 construct": "whole, on cells; on MEF-DKO cells; also called Dog-iR2-FL-WT-T7", "T1 sequence": "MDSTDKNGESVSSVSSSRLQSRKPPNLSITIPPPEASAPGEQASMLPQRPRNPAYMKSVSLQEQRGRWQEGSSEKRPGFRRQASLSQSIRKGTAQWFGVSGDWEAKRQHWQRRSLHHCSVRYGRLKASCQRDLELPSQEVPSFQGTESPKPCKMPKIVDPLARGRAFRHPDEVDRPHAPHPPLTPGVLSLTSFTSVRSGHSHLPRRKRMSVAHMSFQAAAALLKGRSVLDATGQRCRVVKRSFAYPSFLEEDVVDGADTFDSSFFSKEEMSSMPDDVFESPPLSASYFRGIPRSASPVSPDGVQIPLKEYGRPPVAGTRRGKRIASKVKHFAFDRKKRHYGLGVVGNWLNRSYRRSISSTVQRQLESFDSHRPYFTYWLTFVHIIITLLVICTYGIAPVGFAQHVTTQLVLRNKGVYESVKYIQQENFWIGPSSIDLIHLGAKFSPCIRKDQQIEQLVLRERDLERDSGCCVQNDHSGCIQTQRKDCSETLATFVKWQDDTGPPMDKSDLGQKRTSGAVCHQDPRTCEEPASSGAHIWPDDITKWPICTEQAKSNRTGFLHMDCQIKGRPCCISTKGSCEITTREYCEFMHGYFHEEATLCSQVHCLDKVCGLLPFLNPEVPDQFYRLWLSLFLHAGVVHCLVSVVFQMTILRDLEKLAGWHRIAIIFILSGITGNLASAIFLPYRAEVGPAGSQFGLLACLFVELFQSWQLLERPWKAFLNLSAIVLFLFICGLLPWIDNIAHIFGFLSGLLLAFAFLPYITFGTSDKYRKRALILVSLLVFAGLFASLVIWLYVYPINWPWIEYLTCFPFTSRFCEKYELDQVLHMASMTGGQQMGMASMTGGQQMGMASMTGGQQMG", "experiment": "FACS on MEF-DKO-iR2 Dog cells, 3 µg/ml", "method": "In brief, immortalized MEF-DKO-EV control cells, MEF-DKO-rhesus-iR2-FL-WT-T7 cells, MEF-DKO-cyno-iR2-FL-WT-T7 cells, MEF-DKO-dog-iR2-FL-WT-T7 cells and MEF-DKO-rabbit-iR2-FL-WT-T7 cells, as well as their respective iRhom1 counterparts, were harvested with 10 mM EDTA in PBS, washed and resuspended in FACS buffer (PBS, 3% FBS, 0.05% sodium azide), and seeded in Nunc U-bottom 96-well plates (Thermo Fisher Scientific, USA) at approximately 3×10⁵ cells per well. To pellet cells and remove supernatants, the plates were centrifuged at 1,500 rpm and 4° C. for 3 minutes. For primary staining, cells were resuspended in 100 μl per well of either FACS buffer alone (controls), mouse monoclonal anti-T7 IgG (Merck Millipore, USA) at 3 μg/ml FACS buffer or the antibodies of the invention also at 3 μg/ml FACS buffer and incubated on ice for 1 hour.\nAfterwards, plates were centrifuged at 1,500 rpm and 4° C. for 3 minutes and washed twice with 200 μl per well of FACS buffer. For secondary staining, cells were spun down and resuspended in 100 μl per well of PE-conjugated goat anti-mouse IgG F(ab′)2 detection fragment (Dianova, Germany) diluted 1:100 in FACS buffer. Protected from light, the cell suspensions were incubated on ice for 1 hour. […] Finally, cells were resuspended in 150 μl per well of FACS buffer and analyzed using a BD Accuri™ C6 Plus flow cytometer (Becton Dickinson, Germany).", "data": [{"binder": "B1", "values": [{"measurement": "binding result", "result": "binds"}]}]}
